In publication PMC6628393 one finds inhibition of Kv2.1-mediated current in Xenopus oocytes by 1 μM MiDCA1 (reversible on washout) data, which are given here for one substance.

This assay addresses Kv2.1 potassium channel (UniProt Q14721).
Chain of UniProt Q14721 (Q14721 whole entry): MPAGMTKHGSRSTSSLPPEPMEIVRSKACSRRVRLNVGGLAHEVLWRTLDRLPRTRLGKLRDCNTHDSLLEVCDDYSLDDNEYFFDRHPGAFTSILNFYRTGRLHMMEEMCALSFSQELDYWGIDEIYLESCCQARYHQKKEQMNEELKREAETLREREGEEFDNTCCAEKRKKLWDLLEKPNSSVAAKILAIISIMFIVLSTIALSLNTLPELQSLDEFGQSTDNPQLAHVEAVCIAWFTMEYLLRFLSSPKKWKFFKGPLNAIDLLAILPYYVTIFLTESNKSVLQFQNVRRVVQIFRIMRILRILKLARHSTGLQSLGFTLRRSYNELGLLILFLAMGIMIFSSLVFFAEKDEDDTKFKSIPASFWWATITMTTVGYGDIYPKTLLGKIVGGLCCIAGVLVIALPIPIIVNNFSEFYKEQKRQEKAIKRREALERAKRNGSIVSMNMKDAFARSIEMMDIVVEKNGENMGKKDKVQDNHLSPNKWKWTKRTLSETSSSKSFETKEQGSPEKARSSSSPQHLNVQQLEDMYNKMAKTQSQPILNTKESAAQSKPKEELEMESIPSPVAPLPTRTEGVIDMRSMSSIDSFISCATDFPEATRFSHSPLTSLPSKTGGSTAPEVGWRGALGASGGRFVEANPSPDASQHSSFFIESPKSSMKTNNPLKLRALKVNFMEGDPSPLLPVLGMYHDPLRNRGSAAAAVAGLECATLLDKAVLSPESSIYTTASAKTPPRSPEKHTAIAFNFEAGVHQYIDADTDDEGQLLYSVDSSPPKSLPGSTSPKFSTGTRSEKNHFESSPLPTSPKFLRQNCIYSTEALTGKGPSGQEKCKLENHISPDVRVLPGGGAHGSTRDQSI

In the case of “MiDCA1, a phospholipase A2 (PLA2) neurotoxin from Micrurus dumerilii carinicauda coral snake venom (enzyme)”, the inhibition of Kv2.1-mediated current in Xenopus oocytes by 1 μM MiDCA1 (reversible on washout) is 55%.
